Test results taken from patent publication US20230330253A1 (LANOVA MEDICINES, published 2023).

B1: 65G8B8 chimeric antibody (antibody, V domains shown)
VH: QVQLKESGPGLVAPSQSLSITCTVSGFSLTSYGVSWVRQPPGKGLEWLGVIWGDGNTIYHSALKSRLSISRDNSKRQVFLKVNSLQIDDTATYYCAKQGLYGHAMDYWGQGTSVIVSS
VL: DIMMTQSPSSLTVTTGEKVTLTCKSSQSLLNSGNLKNYLTWYQQKPGHPPKLLIYWASTRESGVPVRFTGSGSGTDFTLTISSVQAEDLTVYYCQNVYIYPFTFGSGTKLEMR
B2: 56E8F10F4 chimeric antibody (antibody, V domains shown)
VH: DVQLVESGGGLVQPGGSRKLSCTASGFTFNSFGMNWVRQAPEKGLEWVAFISGGSNTIHYLDTVKGRFTISRDNPKNTLFLQMTSLRSEDTAMYYCTRLALGNAMDYWGQGTSVIVSS
VL: DIVMTQSPSSLTVTAGEKVTMSCKSSQSLLNSGNQKNYLTWYQQKPGQPPKLLIYWASTRESGVPDRFTGSGSGTYFTLTISSVQAADLAVYYCQNDYYFPFTFGSGTKLEIK
B3: 44F6B11 chimeric antibody (antibody, V domains shown)
VH: EVQLVESGGDLVKPGGSLKLSCAASGFTFSNYGMSWVRQTPDKRLEWVATFSYGDSHNYYSDSVKGRFTISRDIAKDALYLQMSSLRSEDTAIYYCARFGRGNTMDYWGQGTSVTVSL
VL: DIVMTQSPSSLTVTAGEKVIMSCKSNQSLLNSGNQKKYLTWYQQKPGQSPKLLIYWASTRESGVPDRFTGSESGTDFTLTISSVRAEDLAVYYCQNGYSYPFTFGSGTKLEMK
B4: 15C2B7 chimeric antibody (antibody, V domains shown)
VH: QIQLVQSGPELRKPGETVKISCKASGYTFTNYGMNWVKQAPGKGLKWMAWINANTGEPTYAEEFKGRFAFSLETSARSAYLQINSLKNEDTATYFCARLTRGNSFDYWGQGTTLTVSS
VL: DIVMTQSPSSLTVTAGGKVTVSCKSSQSLLNSGNQKNYLTWYQQKPGQPPKLLIYWASTRESGVPDRFTGSGSGTDFTLTISSVQTEDLAVYYCQNNYYFPLTFGAGTKLELK
B5: 20F1E10 chimeric antibody (antibody, V domains shown)
VH: QIQLVQSGPELKKPGETVKISCKASGYTFTKYGMNWVRQAPGKGLKWMGWISTNTGEPTYAEEFKGRFAFSLETSASTAFLQINNLKNEDTATYFCARLVRGNSFDFWGQGITLTVSS
VL: DIVMTQSPSSLTVTAGEKVTMSCKSSQSLFNSGNQRNYLTWYQQKPGQPPKLLIYWASTRESGVPDRFTGSGSGTDFILTITKVQAEDLAVYYCQNVYSYPLTFGAGTKLELK
B6: 58G2C2 chimeric antibody (antibody, V domains shown)
VH: QVHLQQSGAEVVRPGTSVKVSCKASGYAFTNYLIEWIKKRPGQGLEWVGVINPGRSGTNYNEKFKGKATLTADKSSSTAYMQLSSLTSDDSAVYFCARTRYGGNAMDYWGQGTSVTVSS
VL: DIVMTQSPSSLTVTAGEKVTMSCKSSQSLLNSGNQKNYLTWYQQKPGQPPTLLIFWAFTRESGVPDRFTGSGSGTDFTLTINSVQAEDLAVYYCQNSYSYPFTFGSGTKLEIK
B7: 101C4F12 chimeric antibody (antibody, V domains shown)
VH: QVQLKESGPGQVAPSQSLSIACTVSGFSLSSYGVHWVRQPPGKGLEWLGVIWAGGSTNYDSALMSRLTISKDNSRTRVFLKMNSLQTDDTAIYYCARSLYGNSLDSWGPGTTLTVSS
VL: DIVMTQSPSSLTVTAGEKVTMSCKSSQSLLNSGNQRNYLTWYQQKPGQPPRLLIYWSSTRDSGVPDRFTGSGSRTDFTLTISSVQAEDLAVYYCQNNFIYPLTFGAGTKLELK
B8: 103A10B2 chimeric antibody (antibody, V domains shown)
VH: QVQLKESGPGLVAPSQSLSITCTVSGLSLTSFGVHWIRQPPGKGLEWLGVIWAGGSTNYNSALMSRLSISKDNSKSQVYLKMHSLQTDDTAMYYCARSLYGNSFDYWGQGTALTVSS
VL: DIVMTQSPSSLTVTPGEKVTMSCRSSMSLFNSGNQKSYLSWYHQKPGQPPKLLIYWASTRDSGVPVRFTGSGSGTDFTLTISSVQAEDLAVYYCHNDYIYPLTFGAGTKLELK
B9: 10G7G11 chimeric antibody (antibody, V domains shown)
VH: QVQLKESGPGLVAPSQSLSITCTISGFSLNTYGVHWVRQPPGKGLEWLVVMLSDGNTVYNSSLKSRLSLTKDNSKSQLLLKMNSLQTDDTAIYYCARHKAYGNAMDYWGQGTSVTVSS
VL: DIVMTQSPSSLTVTAGEKVTMTCKSSQSLFNSGNQRNYLTWYQRKPGQPPKLLIYWASTRESGVPDRFTGSGSGTYFTLTVSSVQAEDLAVYYCQNAYYFPFTFGSGTKLEKK
B10: 78C10B6G4 chimeric antibody (antibody, V domains shown)
VH: QVQLKESGPGLVAPSQSLSITCTVSGFSLINYGVSWVRQPPGKGLEWLGVIRGDGNTNYQSALRSRLSIRKDTSKSQVFLKLNSVHTDGTATYYCAKVGRGNAMDHWGQGISVIVSS
VL: DIVMTQSPSSLTVTAGEKVTMSCKSSQSLLNSGNQKNYLTWYQQRPGQPPKLLIYRASSRESGVPVRFTGSGSGTDFTLTISSVQAEDLAVYYCQNDYIYPYTFGGGTKLEMN
B11: 119G11D9 chimeric antibody (antibody, V domains shown)
VH: EVQLQQSGPELVKPGASVKMSCKASGYTFTGFLMHWVKQKPGQGLEWIGYINPYNDGTKYSEKFKGKATLTSDKSSSTAFMELSSLTSDDSAVYYCARLDYGNAMDYWGQGTSVTVSS
VL: DIVMTQSPSSLTVTAGERVTMRCRSTQSLFNSGNQKNYLTWYQQKPGQPPKLLIYWASTRESGVPDRFTGGGSGTDFTLTISSVQAEDLAVYYCQNAYYYPLTFGAGTKLERK
B12: 113G12E5E6 chimeric antibody (antibody, V domains shown)
VH: QVQLKQSGPGLVQPSQSLSITCTVSDFSLTKYGVHWFRQSPGKGLEWLGVIWTGGNTDYNPALIPRLSFRKDNSKSQVFFKMNSLQSSDTAVYYCARNGYYGNAMDYWGQGTSVTVSS
VL: DIVMTQSPSSLTVTAGERVTMSCKPSQSLLNSGNQKNYLAWYQQKPGQPPKLLLYWASTRESGVPDRFKGSGSGTDFTLTISSVQAEDLAVYYCQNAYFYPCTFGGGTKLEMK
B13: 116A8B7 chimeric antibody (antibody, V domains shown)
VH: EVQLQQSGPELVKPGASVKMSCKSSGYTFTGFLMHWVKQKPGQGLEWIGYINPYNDGTKYSEKFKGKATLTSDKSSSTAYMELSSLTSDDSAVYYCGRLDYGNAMDYWGQGTSVTVSS
VL: DIVMTQSPSSLTVTAGEKVTMRCRSTQSLFNSGNQRNYLTWYQQKPGQPPKLLIYWASTRESGVPDRFTGSGSGTDFTLTISSVQAEDLAVYYCQNAYYYPLTFGVGTKLERK
B14: 105F7G12 chimeric antibody (antibody, V domains shown)
VH: QVQLKQSGPGLVQPSQSLSITCTVSDFSLTKYGVHWFRQSPGKGLEWLGVIWTGGNTDYNPALIPRLSFRKDNSKSQVFFKMNSLQSSDTAVYYCARNGYYGNAMDYWGQGTSVTVSS
VL: DIVMTQSPSSLTVTAGERVTMSCKSSQSLLNSGNQKNYLAWYQQKPGQPPKLLLYWASTRESGVPDRFKGSGSGTDFTLTISSVQAEDLAVYYCQNAYFYPCTFGGGTKLEMK
B15: 84E9E12 chimeric antibody (antibody, V domains shown)
VH: DVQLQESGPGLVKPSQSLSLSCSVTGYSITSGYFWTWFRQFPGNKLEWMGYISYDGSNNYNPSLKNRISITRDTSKNQFFLKLNSVTTEDTATYYCASFRFFAYWGQGTLVTVSA
VL: DIVMTQSPSSLTVTTGEKVTMSCKSSQSVFNSGNQKNYLTWYQQKPGQPPKLLVYWASTRESGVPARFTGSGSGTVFTLTISSVQAEDLAVYYCQNDYYFPLTFGAGTRLELK
B16: 103F4D4 chimeric antibody (antibody, V domains shown)
VH: QVQLQQSGAELARPGASVKMSCKASGYTFPTYSIHWLKQGPGQGLEWIGYINPSTIYTNYNQKFKYKATLTADKSSSTAYIQLSSLTSDDSAVYYCAREGYGRGNAMDYWGQGTSVTVSS
VL: DIVMTQSPSSQTVTAGEKVTLSCRSSQSLLNGGNQKNYLTWYQQKPGQPPKLLIYWASTRESGVPDRFTGSGSGTYFTFTISSVQAEDLAVYYCQNAYFYPFTFGAGTKLELK
B17: 110C12B6 chimeric antibody (antibody, V domains shown)
VH: EVQLQQSGPELVKPGASVKMSCKSSGYTFTGFLMHWVKQKPGQGLEWIGYINPYNDGTKYSEKFKGKATLTSDKSSSTAYMELSSLTSDDSAVYYCGRLDYGNAMDYWGQGTSVTVSS
VL: DIVMTQSPSSLTVTAGEKVTMRCRSTQSLFNSGNQRNYLTWYQQKPGQPPKLLIYWASTRESGVPDRFTGSGSGTDFTLTISSVQAEDLAVYYCQNAYYYPLTFGVGTKLERK
B18: 85H12E8 chimeric antibody (antibody, V domains shown)
VH: QVQLKESGPGLVAPSQSLSITCTVSGFSLSNYGVSWVRQPPGKGLEWLGVIWAGGNTNYNSALMSRLRISKDNSKSQVFLKMNSLQTDDTARYYCARHGYGKGNAMDNWGQGTSVTVSS
VL: DIVMTQSPSSLTVTAGEKVTMNCKSSQSLLNSGNQRNYLSWYQQEPGQPPKLLIYWASTRESGVPDRFTGSGSGTDFTLTISNIQAEDLALYFCQNAYFYPFTFGSGTKLEIK

These binders were tested against human claudin 18.2 (CLDN18.2) (human) (assay: cell-based or functional assay).

Row | Binder | Fluorescence, pHAb internalization on MKN45-CLDN18.2 cells, 20 nM antibody, normalized by DAR | Fluorescence, pHAb internalization on MKN45-CLDN18.2 cells, 100 nM antibody, normalized by DAR
1 | B1 | 15100 | 20500
2 | B2 | 19900 | 28700
3 | B3 | 18400 | 26100
4 | B4 | 19400 | 33200
5 | B5 | 21100 | 45100
6 | B6 | 18600 | 33100
7 | B7 | 15200 | 44400
8 | B8 | 12000 | 31300
9 | B9 | 9600 | 35500
10 | B10 | 16200 | 29100
11 | B11 | 21400 | 34000
12 | B12 | 11000 | 28900
13 | B13 | 21400 | 41700
14 | B14 | 14800 | 43100
15 | B15 | 18700 | 35100
16 | B16 | 31200 | 49100
17 | B17 | 19300 | 40100
18 | B18 | 19700 | 29100
